Data reported in the nanobody polyreactivity screen of Harvey et al. (2022).

Test: yeast display, Sf9 membrane polyspecificity reagent, FACS + sequencing; frameworks hold sequencing errors
In short: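 Galactose-induced (36–48 hours) yeast carrying a synthetic nanobody display library were exposed to 10% biotinylated, detergent-solubilized Sf9 membrane reagent at 4 °C for 1 hour. FACS followed streptavidin microbead enrichment, using low and high (top ~1%) gates for expression (anti-HA) and reagent binding (streptavidin). Colony PCR, MiSeq 2 × 250 sequencing and CDR-length filtering followed. Labels for polyreactivity reflect the gate of origin.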
For “QVQLVESGGGLVQAGGSLRLSCAASGRIFVHYVMGWYRQAPGKERELVAAISRSGGRTYYADSVKGRFTISRDNAKNTVYLQMNSLKPEDTAVYYCATDASTYKYDYWGQGTQVTVSS”, the “polyreactivity (PSR sort gate)” value was “high polyreactivity”. In the case of “QVQLVESGGGLVQAGGSLRLSCAASGRIFVIYAKGWYRQAPGKERELVAVISSDGSTYYADSVKGRFTISRDNAKNTVYLQMNSLKPEDTAVYYCAADRIGRYRPYIGWVVRSYYWGQGTQVTVSS”, the “polyreactivity (PSR sort gate)” value is reported as “low polyreactivity”. With “QVQLVESGGGLVQAGGSLRLSCAASGRIFVIYAMGWYRQAPGKERELVAVINDDGSTNYADSVKGRFTISRDNAKNTVYLQMNSLKPEDSAVYYCNAVYYSYRYGHDYWGQGTQVTVSS” the “polyreactivity (PSR sort gate)” value was “low polyreactivity”. With “QVQLVESGGGLVQAGGSLRLSCAASGRIFVKNAMGWNRQAPGKESELVAAISASGGSTYYADSVKGRFTISRDNAKNTVDLQMNSLKPEDTAVYYCAARRRAFGSTYNYWGQGTQVTVSS” the “polyreactivity (PSR sort gate)” value was “high polyreactivity”. In the case of “QVQLVESGGGLVQAGGSLRLSCAASGRIFVKNAMGWYIQAPGKERELVAAISASGGSTYYADSVKGRFTISRDYSKNTVYLQMNSLKPEYTAVYYCARVLRRRYLSEFDYWGQGTQVTVSS”, the “polyreactivity (PSR sort gate)” value is reported as “high polyreactivity”. With “QVQLVESGGGLVQAGGSLRLSCAASGRIFVKNAMGWYRQAPGKERELVATISSGGNTNYADSVKGRFTISRDNAKNTVYLQLNSLKPEDTAVYYCAAVWDLGDYELPYDYWGQGTQVTVSS” the “polyreactivity (PSR sort gate)” value was “low polyreactivity”. For “QVQLVESGGGLVQAGGSLRLSCAASGRIFVKNTMGLYRQAPGKERELVAAISWYGGSTYYADSVKGRFTISRDNAMNTVYLQMNSLKPEDTAFYYCAAATWQWPWYDYWGQGTKVTVSS”, the “polyreactivity (PSR sort gate)” value was “high polyreactivity”. With “QVQLVESGGGLVQAGGSLRLSCAASGRIFVKYVIGWYRQAPGKERELVAAISSSGGRTYYADSVKGRFTISRDNAKNTVYLQMNSLKPEDTAVYYCAASFRRIYVSGLGGPFDYWGQGTQVNVSS” the “polyreactivity (PSR sort gate)” value was “high polyreactivity”. With “QVQLVESGGGLVQAGGSLRLSCAASGRIFVNNAMGWYRQAPGKERELVATITSGGSTYYADSVKGRFTISRDNAKNTVYLQMNSLKPEDSAVYYCAARRWYVHYFAYGYWGQGTQVTVSS” the “polyreactivity (PSR sort gate)” value was “low polyreactivity”. For “QVQLVESGGGLVQAGGSLRLSCAASGRIFVPNNMGWYRQAPGKERDLVAAISSGGSTYADSVKGRFTISRDNAKNTFYLQLNSLKPEDTAVYYCAVGKYGTQFTQWVRKYDYWGQGTQVTVSS”, the “polyreactivity (PSR sort gate)” value was “low polyreactivity”. With “QVQLVESGGGLVQAGGSLRLSCAASGRIFVQNAMGWYRQAPGKERELVAAISASGGRTSYADSVKGRFTISRDNAKNTVYLQMNSLKPEDTAVYYCAALFRVYPLTKKYGYWGQGTQVTVSS” the “polyreactivity (PSR sort gate)” value was “high polyreactivity”. In the case of “QVQLVESGGGLVQAGGSLRLSCAASGRIFVQNAMGWYRQAPGKERELVAAISISGARTYYADSVKGRFTISRDNAKNTVYLQMNSLKPEDTAVYYCNASYRDEDDYWGQGTQVTVSS”, the “polyreactivity (PSR sort gate)” value is reported as “high polyreactivity”. In the case of “QVQLVESGGGLVQAGGSLRLSCAASGRIFVQYAMGWYRQAPGKERELVAAISKSGVRTFYADSVKGRFTISRDNAKNTVYLQMNSLKPEDTAVYYCNKAYRVGRTEFNYWGQGTQVTVSS”, the “polyreactivity (PSR sort gate)” value is reported as “high polyreactivity”. With “QVQLVESGGGLVQAGGSLRLSCAASGRIFVRNAMGWYRQAPGKERELVAAISRSGGSTYYADSVKGRFTISRDNAKNTVYLQMNSLKPEDTAVYYCNKGFNYGGWFKKYGYWGQGTQVTVSS” the “polyreactivity (PSR sort gate)” value was “high polyreactivity”. For “QVQLVESGGGLVQAGGSLRLSCAASGRIFVRNAMGWYRQAPGKERELVAAISWRGTSTYYADSVKGRFTISRDNAKNTVYLQMNSLKPEDTAVYYCAKRISGYRGDYWGQGTQVTVSS”, the “polyreactivity (PSR sort gate)” value was “high polyreactivity”. With “QVQLVESGGGLVQAGGSLRLSCAASGRIFVRNAMGWYRQAPGKERELVAGISNAGRTNYADSVKGRFTISRDNAKNTVYLQMNSLKPEDTAVYYCAKRPGYDYDYWGQGTQVTVSS” the “polyreactivity (PSR sort gate)” value was “high polyreactivity”. With “QVQLVESGGGLVQAGGSLRLSCAASGRIFVRNAMGWYRQAPGKEREMVAAISASGGSTYYADSVKGRFTISRDNAKNTVYLLMNSLKPEDTAVYYCNAYRAYYDLAYGYWGQGTQVTVSS” the “polyreactivity (PSR sort gate)” value was “high polyreactivity”. In the case of “QVQLVESGGGLVQAGGSLRLSCAASGRIFVRNGMGWYRQAPGKERELVAAISASGGNTYYADSVKGRFTISRDNAKNTVYLQMNSLKPEDTAVYYCATTRRVPGEYWGQGTQVTVSS”, the “polyreactivity (PSR sort gate)” value is reported as “high polyreactivity”. In the case of “QVQLVESGGGLVQAGGSLRLSCAASGRIFVTNTMGWYRQAPGKERELVAAIDNSAGSTYYADSVKGRFTISRDNAKNTVYLQMNSLIPEDTAVYYCAADYPPYYAYGYWGQGTQVTVSS”, the “polyreactivity (PSR sort gate)” value is reported as “low polyreactivity”. In the case of “QVQLVESGGGLVQAGGSLRLSCAASGRIFVVNAMGWYRQAPGKERELVAAISSSSDSTYYADSVKGRFTISRDNAKNTVYLQMNSLKPEDTAVYYRAADYHYDGYWIYDYWGLGTQVTVSS”, the “polyreactivity (PSR sort gate)” value is reported as “high polyreactivity”. In the case of “QVQLVESGGGLVQAGGSLRLSCAASGRIFVVNAMGWYRQAPGKERELVAAITRRGGSTYADSVKGRFTISRDNAKNTVYLQMNSLKPEDTAVYYCNAESYYGIFRYKYDYWGQGTQVTVSS”, the “polyreactivity (PSR sort gate)” value is reported as “high polyreactivity”. With “QVQLVESGGGLVQAGGSLRLSCAASGRIFVVYAMGWYRQAPGTETELVANITISGGRTYYADSVKGRFTISRDNAKNTVYVQMNSLKPEDTAVYYCAATSGALYYGYEYWGQGTQVTVSS” the “polyreactivity (PSR sort gate)” value was “low polyreactivity”. For “QVQLVESGGGLVQAGGSLRLSCAASGRIFVYKAMGSYRQAPGKERELVASITSSGGSTYYADSVKGRFTISRDNAKNTVYLQMNSLKPEDTAVYYCAADVQPDTRSTPEMDYWGQGTQVTVSS”, the “polyreactivity (PSR sort gate)” value was “low polyreactivity”. In the case of “QVQLVESGGGLVQAGGSLRLSCAASGRIFVYNAMGWYRQAPGKEREFVAAISWDGASTYYADSVKGRFTISRDNAKNTVYLQMNSLKPEDTAVYYCAASYRRKLYNDYWGQGTQVTVSS”, the “polyreactivity (PSR sort gate)” value is reported as “low polyreactivity”. For “QVQLVESGGGLVQAGGSLRLSCAASGRIFVYNAMGWYRQAPGKEREFVASINWSGSSTYADSVKGRFTISRDNAKNTVYLQMNSLKQEDTAVYYCAARRWRYEAYRSQYDYGYWGQGTQVTVSS”, the “polyreactivity (PSR sort gate)” value was “low polyreactivity”. With “QVQLVESGGGLVQAGGSLRLSCAASGRIFVYNAMGWYRQAPGKERELVAAISRSGSSTYYADSVKGRFTISRDNAKNTVYLQMNSLKPEDTAVYYCNAVLSRWTQSGKYRYRYFGFEYWGQGTQVTVSS” the “polyreactivity (PSR sort gate)” value was “high polyreactivity”. In the case of “QVQLVESGGGLVQAGGSLRLSCAASGRIFVYNAMGWYRQAPGKERELVAAISWSGGSTYYADSVKGRFTISRDNAKNTVYLQMNSLKPEDTAVYYCAAYYSARRGHYRNSYGYDYWGQGTQVTVSS”, the “polyreactivity (PSR sort gate)” value is reported as “high polyreactivity”. With “QVQLVESGGGLVQAGGSLRLSCAASGRIFVYNAMGWYRQAPGKERELVAAITYSVDSTYYADSVKGRFTISRDNAKNTVYLQMNSLKPEDTAVYYCAADDFHYVIHAYYSSGVDYWGQGTQVTVSS” the “polyreactivity (PSR sort gate)” value was “low polyreactivity”. In the case of “QVQLVESGGGLVQAGGSLRLSCAASGRIFVYNAMGWYRQAPGKERELVASISSTTSTYYADSVKGRFTISRDNAKNTVYLQMNSLKPEDTAVYYCNARYQTRYGRYWYKVRGMDYWGQGTQVTVSS”, the “polyreactivity (PSR sort gate)” value is reported as “high polyreactivity”. In the case of “QVQLVESGGGLVQAGGSLRLSCAASGRIFVYNAMGWYRQAPGKERELVASISWSGDSTYADSVKGRFTISRDNAKNTVYLQMNSLKPEDTAVYYCAAYSQADYQNMDYWGQGTQVTVSS”, the “polyreactivity (PSR sort gate)” value is reported as “low polyreactivity”. For “QVQLVESGGGLVQAGGSLRLSCAASGRIFVYNVMGWYRQAPGKERELVAAISWGTGSTYADSVKGRFTISRDNAKNTVYLQMNSLKPEDTAVYYCAADWLSTKNDYWGQGTQVTVSS”, the “polyreactivity (PSR sort gate)” value was “low polyreactivity”.
